How the values were obtained:
[1] = target: T1, human B7H4 on the cell surface (human, UniProt Q7Z7D3 25-282); test: FACS, SK-BR-3 cells
T1 construct: whole, on cells; also called CHOK1/hu B7H4; B7H4 on SK-BR-3
T1 sequence (looked up): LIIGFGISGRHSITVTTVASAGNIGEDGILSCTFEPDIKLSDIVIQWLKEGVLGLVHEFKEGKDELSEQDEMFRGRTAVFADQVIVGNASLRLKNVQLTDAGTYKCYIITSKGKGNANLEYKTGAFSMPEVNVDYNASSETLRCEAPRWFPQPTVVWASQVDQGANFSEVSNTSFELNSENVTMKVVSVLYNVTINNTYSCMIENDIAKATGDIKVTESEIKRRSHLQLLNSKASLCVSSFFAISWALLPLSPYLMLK
Description: This example is intended to investigate the in vitro binding activity of anti-human B7H4 H2L2 monoclonal antibody to human/cynomolgus monkey/mouse B7H4. Antibody binding experiments at the cellular level were performed using CHOK1 cell line overexpressing human B7H4 (CHOK1/hu B7H4, Harbour BioMed), CHOK1 cell line overexpressing cynomolgus monkey B7H4 (CHOK1/cyno B7H4, Harbour BioMed), CHOK1 cell line overexpressing mouse B7H4 (CHOK1/m B7H4, Harbour BioMed) and SK-BR-3 cell line (ATCC® HTB-30) highly expressing human B7H4. Briefly, CHOK1/hu B7H4 cells, CHOK1/cyno B7H4 cells, CHOK1/m B7H4 cells or SK-BR-3 cells were digested and resuspended with PBS containing 2% BSA. The cell density was adjusted to 1×10⁶ cells/mL. The cells were seeded in a 96-well V-bottom plate (Corning, #3894) at 100 μL/well, followed by the addition of test antibodies diluted in a 3-fold concentration gradient of 2 times the final concentration, each at 100 μL/well. The cells were incubated at 4° C. for 2 h away from light. Thereafter, the cells in each well were rinsed twice with 100 μL of pre-cooled PBS containing 2% BSA, and centrifuged at 500 g at 4° C. for 5 min, and then the supernatant was discarded. Then 100 μL of a fluorescent secondary antibody (Alexa Fluor 488-conjugated AffiniPure Goat Anti-Human IgG, Fcγ Fragment Specific, Jackson, #109-545-098, 1:500 diluted) was added to each well. The plate was incubated away from light at 4° C. for 1 h. The cells in each well were washed twice with 100 μL of pre-cooled PBS containing 2% BSA, and centrifuged at 500 g at 4° C. for 5 minutes, and then the supernatant was discarded. Finally, the cells in each well were resuspended with 200 μL of pre-cooled PBS containing 2% BSA, and the fluorescence signal values were read using an ACEA Novocyte3000 flow cytometer.

[2] = target: T1, human B7H4 on the cell surface; test: FACS on MDA-MB-468 cells
[3] = target: T2, B7-H4 (Acro Biosystems, #B74-H82E2) (UniProt Q7Z7D3 29-258); test: BLI epitope competition; 1st Ab = row; competitor (2nd Ab) PR002418; inhibition of the 2nd Ab signal
T2 construct: Bought protein; also called B7-H4 captured on SA sensor
T2 sequence (looked up): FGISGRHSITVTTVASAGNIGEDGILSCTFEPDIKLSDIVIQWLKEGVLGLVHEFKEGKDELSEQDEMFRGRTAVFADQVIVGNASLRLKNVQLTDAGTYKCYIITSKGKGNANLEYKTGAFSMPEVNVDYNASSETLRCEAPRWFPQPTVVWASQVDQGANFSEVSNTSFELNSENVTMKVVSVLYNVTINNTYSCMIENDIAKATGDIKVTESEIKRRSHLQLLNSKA
Description: (§1) Step one, acquisition of 100% signal of antibodies: B7-H4 (Acro Biosystems, #B74-H82E2-200 μg) was captured at a capture height of 0.25 nm using an SA sensor (Fortebio, #18-5019). The sensor was equilibrated in a buffer for 120 s and then immersed in each antibody diluted to 100 nM for 240 s, and the final signal of the antibody binding to B7-H4 was recorded as the 100% signal of the antibody. Step two, epitope competition experiment: B7-H4 was captured using an SA sensor at a capture height of 0.25 nm. The sensor was immersed in a primary antibody (at a concentration of 100 nM) for 240 s, and then the SA sensor was immersed in a mixture of the primary and secondary antibodies (both at a final concentration of 100 nM) for 240 s, and the difference in signals after immersion of the sensor in the antibody mixture was recorded as the signal of the antibody as the secondary antibody. The inhibition rate was calculated according to the following formula: […]

[4] = target: T2, B7-H4 (Acro Biosystems, #B74-H82E2); test: BLI epitope competition; 1st Ab = row; competitor (2nd Ab) PR002421; inhibition of the 2nd Ab signal
Description: as §1

[5] = target: T2, B7-H4 (Acro Biosystems, #B74-H82E2); test: BLI epitope competition; 1st Ab = row; competitor (2nd Ab) Control antibody 2; inhibition of the 2nd Ab signal
Description: as §1

[6] = target: T1, human B7H4 on the cell surface; test: FACS on MDA-MB-468 cells; in the drawn table the number stands under the head 'EC50 (nM)' (the two heads are interchanged)
[7] = target: T1, human B7H4 on the cell surface; test: FACS on MDA-MB-468 cells; in the drawn table the number stands under the head 'Maximum MFI' (the two heads are interchanged); the head says nM, the axis of the curve µg/mL

EC50 [1]: 1.18 nM | Maximum MFI [1]: 316000 MFI | EC50 (read off the curve) [2]: ~0.2 µg/mL | Competitive inhibition rate (%) [3]: 4.55% | Competitive inhibition rate (%) [4]: 1.97% | Competitive inhibition rate (%) [5]: 94.6% | Maximum MFI [6]: 254000 | EC50 [7]: 0.194 nM
B1: Control antibody 1 (PR000157) (antibody, V domains shown)
VH: EVQLVQSGAEVKKPGASVKVSCKASGYTFTSYWIGWVRQAPGQGLEWIGDIYPGGGYTNYNEKFKGRVTITRDTSTSTAYLELSSLRSEDTAVYYCARLAGSSYRGAMDSWGQGTLVTVSS
VL: DIQMTQSPSSLSASVGDRVTITCKASQGFNKYVAWYQQKPGKAPKLLIYYTSTLQPGVPSRFSGSGSGRDYTLTISSLQPEDFATYYCLQYGDLLYAFGQGTKVEIKR
notes: Anti-B7H4 IgG1 control antibody from WO2016040724A1; also called 1D11.v1.9varC2

— patent US20230312722A1 (NONA BIOSCIENCES SUZHOU, published 2023)
